# Assays:
# IL-6:sIL-6R complex = IL-6:sIL-6R complex (UniProt P05231)
# IL-11:sIL-11R complex = IL-11:sIL-11R complex (UniProt P20809)
# [1] = biological target: Hyper-IL-6 (Homo sapiens) (UniProt P05231); details: cited from earlier work
# Hyper-IL-6 (Homo sapiens), sequence (P05231 30-212, chain 1 of 2): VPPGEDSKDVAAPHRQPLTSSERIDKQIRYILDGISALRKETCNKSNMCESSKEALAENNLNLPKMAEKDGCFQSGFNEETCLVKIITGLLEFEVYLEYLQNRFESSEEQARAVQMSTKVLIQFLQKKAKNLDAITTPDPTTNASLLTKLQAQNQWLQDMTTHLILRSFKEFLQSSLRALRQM
# Hyper-IL-6 (Homo sapiens), sequence (partner, as listed by the source, chain 2 of 2): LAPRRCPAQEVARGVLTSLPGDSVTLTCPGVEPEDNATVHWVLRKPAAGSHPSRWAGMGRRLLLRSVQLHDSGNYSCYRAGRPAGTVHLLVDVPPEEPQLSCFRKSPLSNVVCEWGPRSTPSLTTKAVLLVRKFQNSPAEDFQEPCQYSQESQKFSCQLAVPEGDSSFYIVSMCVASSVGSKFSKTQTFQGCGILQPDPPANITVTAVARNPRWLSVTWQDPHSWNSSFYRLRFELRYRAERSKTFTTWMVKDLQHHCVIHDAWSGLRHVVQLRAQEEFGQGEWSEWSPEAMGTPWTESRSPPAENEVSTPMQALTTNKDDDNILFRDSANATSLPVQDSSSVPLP
# IL-6:sIL-6R complex, sequence (P05231 30-212, chain 1 of 2): as the sequence (P05231 30-212, chain 1 of 2) above
# IL-6:sIL-6R complex, sequence (P08887 20-365, chain 2 of 2, further chain): as the sequence (partner, as listed by the source, chain 2 of 2) above
# sgp130Fc, sequence (P40189 23-619): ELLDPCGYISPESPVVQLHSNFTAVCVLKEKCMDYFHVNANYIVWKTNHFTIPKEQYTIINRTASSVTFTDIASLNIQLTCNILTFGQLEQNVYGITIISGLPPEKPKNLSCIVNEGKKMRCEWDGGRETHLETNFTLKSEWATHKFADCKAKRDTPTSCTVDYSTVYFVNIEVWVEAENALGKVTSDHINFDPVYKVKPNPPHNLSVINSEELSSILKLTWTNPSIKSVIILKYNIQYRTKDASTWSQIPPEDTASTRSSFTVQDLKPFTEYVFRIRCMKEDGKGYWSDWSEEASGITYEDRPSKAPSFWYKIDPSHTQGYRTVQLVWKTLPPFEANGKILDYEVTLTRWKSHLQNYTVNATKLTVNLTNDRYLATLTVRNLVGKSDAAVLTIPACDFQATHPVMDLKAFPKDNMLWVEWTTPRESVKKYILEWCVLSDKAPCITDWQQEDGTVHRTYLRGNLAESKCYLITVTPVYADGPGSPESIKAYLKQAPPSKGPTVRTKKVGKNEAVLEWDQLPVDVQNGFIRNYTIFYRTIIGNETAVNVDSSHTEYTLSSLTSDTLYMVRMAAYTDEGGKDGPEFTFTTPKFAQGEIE
# IL-11:sIL-11R complex, sequence (P20809 22-199, chain 1 of 2): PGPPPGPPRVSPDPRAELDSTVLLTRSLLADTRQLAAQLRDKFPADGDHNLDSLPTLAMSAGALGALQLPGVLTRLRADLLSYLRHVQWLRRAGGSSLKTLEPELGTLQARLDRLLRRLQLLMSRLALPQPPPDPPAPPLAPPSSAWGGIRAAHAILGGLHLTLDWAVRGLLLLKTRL
# IL-11:sIL-11R complex, sequence (Q14626 24-370, chain 2 of 2, further chain): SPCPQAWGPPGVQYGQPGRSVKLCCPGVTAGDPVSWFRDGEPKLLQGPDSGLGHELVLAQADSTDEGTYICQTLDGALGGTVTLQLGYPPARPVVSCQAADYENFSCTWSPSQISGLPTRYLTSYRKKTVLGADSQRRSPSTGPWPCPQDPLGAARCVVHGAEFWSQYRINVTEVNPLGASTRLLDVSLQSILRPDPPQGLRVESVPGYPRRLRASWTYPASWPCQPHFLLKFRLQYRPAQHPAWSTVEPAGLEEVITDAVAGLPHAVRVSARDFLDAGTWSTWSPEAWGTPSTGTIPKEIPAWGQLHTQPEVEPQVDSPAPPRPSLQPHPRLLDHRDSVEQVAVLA
# sgp130^R281QFc, sequence (P40189 23-619 R281Q): as the sequence (P40189 23-619) above, with R259Q counted along it
substance,measurement,setting,value
sgp130Fc (from UniProt P40189 23-619) (Fc fusion),IC50 of inhibition of IL-6/sIL-6R (50/100 ng/ml) induced proliferation of Ba/F3-gp130 cells (blocks the complex from membrane-bound gp130),IL-6:sIL-6R complex,0.45 nM
same,IC50 of inhibition of sIL-11R/IL-11 (10/100 ng/ml) induced proliferation of Ba/F3-gp130 cells (blocks the complex from membrane-bound gp130),IL-11:sIL-11R complex,0.29 nM
sgp130^R281QFc (from UniProt P40189 23-619) (Fc fusion),IC50 of inhibition of sIL-6R/IL-6 (50/100 ng/ml) induced proliferation of Ba/F3-gp130 cells (blocks the complex from membrane-bound gp130),IL-6:sIL-6R complex,0.78 nM
sgp130FlyFc ECD (from UniProt P40189),Kd,[1],0.122 nM
